Test results from publication PMC9893541 (BMC Biology, 2023).

How the values were obtained:
Assay in all cases: SPR; BIAcore T-200; chimeric Fc-type 1 receptor coupled to a Series S Protein A chip; ligands 6.25-0.049 nM flowed at 50 uL/min, 300 s association, 1000 s dissociation; 20 mM HEPES pH 7.4, 350 mM NaCl, 0.005 % P-20, 0.5 mg/mL BSA, 3.4 mM EDTA; kinetic 1:1 fit (also a bivalent fit); apparent KD = kd/ka; average of N=2
Details in all cases: both partners purified
BMP4 homodimer = biological target: T1, BMP4 homodimer (human, UniProt P12644 293-408)
T1 construct: additional Met residue on the N-terminus of the BMP4 construct; bone morphogenetic protein 4 (BMP4), mature domain; Dimer stabilised by an inter-chain disulfide bond; also called homodimeric BMP4
T1 sequence: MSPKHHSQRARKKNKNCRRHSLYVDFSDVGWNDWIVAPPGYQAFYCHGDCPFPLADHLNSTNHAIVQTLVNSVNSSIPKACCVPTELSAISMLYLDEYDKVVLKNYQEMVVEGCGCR

GDF5 homodimer = biological target: T2, GDF5 homodimer (human, UniProt P43026 382-501)
T2 construct: Growth and Differentiation Factor 5 (GDF5), mature domain; Dimer stabilised by an inter-chain disulfide bond; also called homodimeric GDF5; Growth and Differentiation Factor 5
T2 sequence (looked up): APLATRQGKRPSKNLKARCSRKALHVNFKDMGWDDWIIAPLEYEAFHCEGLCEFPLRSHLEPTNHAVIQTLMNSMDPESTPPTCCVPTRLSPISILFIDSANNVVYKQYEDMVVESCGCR

BMP2/GDF5 heterodimer = biological target: T3, BMP2/GDF5 heterodimer (human, UniProt P12643 283-396; P43026 382-501)
T3 construct: bone morphogenetic protein 2 (BMP2), mature domain; Growth and Differentiation Factor 5 (GDF5), mature domain; Made by people from two natural mature chains; disulfide-linked dimer; also called GDF5/BMP2; WT heterodimer; copies: 1 + 1
T3 sequence (P12643 283-396, one chain of several): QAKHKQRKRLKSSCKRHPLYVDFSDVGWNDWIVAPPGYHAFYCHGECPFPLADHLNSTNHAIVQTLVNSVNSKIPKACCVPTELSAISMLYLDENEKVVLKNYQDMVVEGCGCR

BMP2 homodimer = biological target: T4, BMP2 homodimer (human, UniProt P12643 283-396)
T4 construct: bone morphogenetic protein 2 (BMP2), mature domain; cDNA received from Hongwen Ma; Dimer stabilised by an inter-chain disulfide bond; Cloned in pET21a; no tag is mentioned; also called homodimeric BMP2; bone morphogenetic protein 2
T4 sequence (P12643 283-396): as the sequence (P12643 283-396, one chain of several) above

BMP4/GDF5 heterodimer = biological target: T5, BMP4/GDF5 heterodimer (human, UniProt P12644 293-408; P43026 382-501)
T5 construct: additional Met residue on the N-terminus of the BMP4 construct; bone morphogenetic protein 4 (BMP4), mature domain; Growth and Differentiation Factor 5 (GDF5), mature domain; Made by people from two natural mature chains; disulfide-linked dimer; also called GDF5/BMP4; copies: 1 + 1
T5 sequence 1: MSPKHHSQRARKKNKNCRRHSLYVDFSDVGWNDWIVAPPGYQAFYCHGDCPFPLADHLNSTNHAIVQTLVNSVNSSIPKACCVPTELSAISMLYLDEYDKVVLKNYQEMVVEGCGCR
T5 sequence 2: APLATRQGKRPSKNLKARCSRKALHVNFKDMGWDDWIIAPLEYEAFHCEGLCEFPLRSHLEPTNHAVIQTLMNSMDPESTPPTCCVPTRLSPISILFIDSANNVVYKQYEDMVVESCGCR

Kd (BMP4 homodimer): 0.113 nM
Kd (GDF5 homodimer): 0.057 nM
Kd (BMP2/GDF5 heterodimer): 0.026 nM
Kd (BMP2 homodimer): 0.102 nM
Kd (BMP4/GDF5 heterodimer): 0.046 nM
B1: FC-(Alk6)2 (Fc fusion, UniProt O00238 14-126, looked up)
chain: KKEDGESTAPTPRPKVLRCKCHHHCPEDSVNNICSTDGYCFTMIEEDDSGLPVVTSGCLGLEGSDFQCRDTPIPHQRRSIECCTERNECNKDLHPTLPPLKNRDFVDGPIHHR
notes: type 1 receptor Alk6 (BMPR1B) in a recombinant chimeric Fc-receptor; also called chimeric FC-receptor; source: bought: R&D (Cat# 505-PR-100)
